Test results taken from US20150374794A1 (Novo Nordisk, published 2015).
Numbered stars: 1 amine (or outer) side, 2 acyl side, 3 side chain; on linkers, the order of the positions; unused ones are H or OH. Square brackets hold non-standard residues; d marks the D form. Side chains are listed from the residue outwards. Ends that are not written are not given here. * marks the point of attachment. C18 diacid = O=C(O)CCCCCCCCCCCCCCCCC(=O)*; γGlu = O=C(O)[C@H](CCC(=O)[*:2])N[*:1]; AEEA = NCCOCCOCC(=O)O; Aib = CC(C)(N)C(=O)O

B1: N^ε16-[(4S)-4-carboxy-4-[[(4S)-4-carboxy-4-[[2-[2-[2-[[2-[2-[2-[[(4S)-4-carboxy-4-(17-carboxyheptadecanoylamino)butanoyl]amino]ethoxy]ethoxy]acetyl]amino]ethoxy … (peptide)
peptide: H[Aib]QGTFTSDLSKYLDK([γGlu-γGlu-AEEA-AEEA-γGlu-C18 diacid])RRARDFVQWLLST-NH2
modifications: N-terminus assumed
SMILES: CC(C)C[C@H](NC(=O)[C@H](Cc1ccc(O)cc1)NC(=O)[C@H](CCCCN)NC(=O)[C@H](CO)NC(=O)[C@H](CC(C)C)NC(=O)[C@H](CC(=O)O)NC(=O)[C@H](CO)NC(=O)[C@@H](NC(=O)[C@H](Cc1ccccc1)NC(=O)[C@@H](NC(=O)CNC(=O)[C@H](CCC(N)=O)NC(=O)C(C)(C)NC(=O)[C@@H](N)Cc1c[nH]cn1)[C@@H](C)O)[C@@H](C)O)C(=O)N[C@@H](CC(=O)O)C(=O)N[C@@H](CCCCNC(=O)CC[C@H](NC(=O)CC[C@H](NC(=O)COCCOCCNC(=O)COCCOCCNC(=O)CC[C@H](NC(=O)CCCCCCCCCCCCCCCCC(=O)O)C(=O)O)C(=O)O)C(=O)O)C(=O)N[C@@H](CCCNC(=N)N)C(=O)N[C@@H](CCCNC(=N)N)C(=O)N[C@@H](C)C(=O)N[C@@H](CCCNC(=N)N)C(=O)N[C@@H](CC(=O)O)C(=O)N[C@@H](Cc1ccccc1)C(=O)N[C@H](C(=O)N[C@@H](CCC(N)=O)C(=O)N[C@@H](Cc1c[nH]c2ccccc12)C(=O)N[C@@H](CC(C)C)C(=O)N[C@@H](CC(C)C)C(=O)N[C@@H](CO)C(=O)N[C@H](C(N)=O)[C@@H](C)O)C(C)C
B2: N^ε28-[(4S)-4-carboxy-4-[[(4S)-4-carboxy-4-[[2-[2-[2-[[2-[2-[2-[[(4S)-4-carboxy-4-(17-carboxyheptadecanoylamino)butanoyl]amino]ethoxy]ethoxy]acetyl]amino]ethoxy … (peptide)
peptide: H[Aib]HGTFTSDLSKYLESKRAREFVQWLLK([γGlu-γGlu-AEEA-AEEA-γGlu-C18 diacid])T-NH2
modifications: N-terminus assumed
SMILES: CC(C)C[C@H](NC(=O)[C@H](Cc1ccc(O)cc1)NC(=O)[C@H](CCCCN)NC(=O)[C@H](CO)NC(=O)[C@H](CC(C)C)NC(=O)[C@H](CC(=O)O)NC(=O)[C@H](CO)NC(=O)[C@@H](NC(=O)[C@H](Cc1ccccc1)NC(=O)[C@@H](NC(=O)CNC(=O)[C@H](Cc1c[nH]cn1)NC(=O)C(C)(C)NC(=O)[C@@H](N)Cc1c[nH]cn1)[C@@H](C)O)[C@@H](C)O)C(=O)N[C@@H](CCC(=O)O)C(=O)N[C@@H](CO)C(=O)N[C@@H](CCCCN)C(=O)N[C@@H](CCCNC(=N)N)C(=O)N[C@@H](C)C(=O)N[C@@H](CCCNC(=N)N)C(=O)N[C@@H](CCC(=O)O)C(=O)N[C@@H](Cc1ccccc1)C(=O)N[C@H](C(=O)N[C@@H](CCC(N)=O)C(=O)N[C@@H](Cc1c[nH]c2ccccc12)C(=O)N[C@@H](CC(C)C)C(=O)N[C@@H](CC(C)C)C(=O)N[C@@H](CCCCNC(=O)CC[C@H](NC(=O)CC[C@H](NC(=O)COCCOCCNC(=O)COCCOCCNC(=O)CC[C@H](NC(=O)CCCCCCCCCCCCCCCCC(=O)O)C(=O)O)C(=O)O)C(=O)O)C(=O)N[C@H](C(N)=O)[C@@H](C)O)C(C)C
B3: N^ε28-[(4S)-4-carboxy-4-[[(4S)-4-carboxy-4-[[(4S)-4-carboxy-4-(17-carboxyheptadecanoylamino)butanoyl]amino]butanoyl]amino]butanoyl]-[Aib2,His3,Leu10,Glu15,Lys17 … (peptide)
peptide: H[Aib]HGTFTSDLSKYLESKRAREFVQWLLK([γGlu-γGlu-γGlu-C18 diacid])T-NH2
modifications: N-terminus assumed
SMILES: CC(C)C[C@H](NC(=O)[C@H](Cc1ccc(O)cc1)NC(=O)[C@H](CCCCN)NC(=O)[C@H](CO)NC(=O)[C@H](CC(C)C)NC(=O)[C@H](CC(=O)O)NC(=O)[C@H](CO)NC(=O)[C@@H](NC(=O)[C@H](Cc1ccccc1)NC(=O)[C@@H](NC(=O)CNC(=O)[C@H](Cc1c[nH]cn1)NC(=O)C(C)(C)NC(=O)[C@@H](N)Cc1c[nH]cn1)[C@@H](C)O)[C@@H](C)O)C(=O)N[C@@H](CCC(=O)O)C(=O)N[C@@H](CO)C(=O)N[C@@H](CCCCN)C(=O)N[C@@H](CCCNC(=N)N)C(=O)N[C@@H](C)C(=O)N[C@@H](CCCNC(=N)N)C(=O)N[C@@H](CCC(=O)O)C(=O)N[C@@H](Cc1ccccc1)C(=O)N[C@H](C(=O)N[C@@H](CCC(N)=O)C(=O)N[C@@H](Cc1c[nH]c2ccccc12)C(=O)N[C@@H](CC(C)C)C(=O)N[C@@H](CC(C)C)C(=O)N[C@@H](CCCCNC(=O)CC[C@H](NC(=O)CC[C@H](NC(=O)CC[C@H](NC(=O)CCCCCCCCCCCCCCCCC(=O)O)C(=O)O)C(=O)O)C(=O)O)C(=O)N[C@H](C(N)=O)[C@@H](C)O)C(C)C
B4: N^ε29-[(4S)-4-carboxy-4-[[(4S)-4-carboxy-4-[[2-[2-[2-[[2-[2-[2-[[(4S)-4-carboxy-4-(17-carboxyheptadecanoylamino)butanoyl]amino]ethoxy]ethoxy]acetyl]amino]ethoxy … (peptide)
peptide: H[Aib]QGTFTSDLSKYLDERRAKDFVQWLLSK([γGlu-γGlu-AEEA-AEEA-γGlu-C18 diacid])-NH2
modifications: N-terminus assumed
SMILES: CC(C)C[C@H](NC(=O)[C@H](CC(C)C)NC(=O)[C@H](Cc1c[nH]c2ccccc12)NC(=O)[C@H](CCC(N)=O)NC(=O)[C@@H](NC(=O)[C@H](Cc1ccccc1)NC(=O)[C@H](CC(=O)O)NC(=O)[C@H](CCCCN)NC(=O)[C@H](C)NC(=O)[C@H](CCCNC(=N)N)NC(=O)[C@H](CCCNC(=N)N)NC(=O)[C@H](CCC(=O)O)NC(=O)[C@H](CC(=O)O)NC(=O)[C@H](CC(C)C)NC(=O)[C@H](Cc1ccc(O)cc1)NC(=O)[C@H](CCCCN)NC(=O)[C@H](CO)NC(=O)[C@H](CC(C)C)NC(=O)[C@H](CC(=O)O)NC(=O)[C@H](CO)NC(=O)[C@@H](NC(=O)[C@H](Cc1ccccc1)NC(=O)[C@@H](NC(=O)CNC(=O)[C@H](CCC(N)=O)NC(=O)C(C)(C)NC(=O)[C@@H](N)Cc1c[nH]cn1)[C@@H](C)O)[C@@H](C)O)C(C)C)C(=O)N[C@@H](CO)C(=O)N[C@@H](CCCCNC(=O)CC[C@H](NC(=O)CC[C@H](NC(=O)COCCOCCNC(=O)COCCOCCNC(=O)CC[C@H](NC(=O)CCCCCCCCCCCCCCCCC(=O)O)C(=O)O)C(=O)O)C(=O)O)C(N)=O
B5: N^ε29-[(4S)-4-carboxy-4-[[(4S)-4-carboxy-4-[[2-[2-[2-[[2-[2-[2-[[(4S)-4-carboxy-4-(17-carboxyheptadecanoylamino)butanoyl]amino]ethoxy]ethoxy]acetyl]amino]ethoxy … (peptide)
peptide: H[Aib]QGTFTSDLSKYLDTRRAKDFVQWLLSK([γGlu-γGlu-AEEA-AEEA-γGlu-C18 diacid])-NH2
modifications: N-terminus assumed
SMILES: CC(C)C[C@H](NC(=O)[C@H](CC(C)C)NC(=O)[C@H](Cc1c[nH]c2ccccc12)NC(=O)[C@H](CCC(N)=O)NC(=O)[C@@H](NC(=O)[C@H](Cc1ccccc1)NC(=O)[C@H](CC(=O)O)NC(=O)[C@H](CCCCN)NC(=O)[C@H](C)NC(=O)[C@H](CCCNC(=N)N)NC(=O)[C@H](CCCNC(=N)N)NC(=O)[C@@H](NC(=O)[C@H](CC(=O)O)NC(=O)[C@H](CC(C)C)NC(=O)[C@H](Cc1ccc(O)cc1)NC(=O)[C@H](CCCCN)NC(=O)[C@H](CO)NC(=O)[C@H](CC(C)C)NC(=O)[C@H](CC(=O)O)NC(=O)[C@H](CO)NC(=O)[C@@H](NC(=O)[C@H](Cc1ccccc1)NC(=O)[C@@H](NC(=O)CNC(=O)[C@H](CCC(N)=O)NC(=O)C(C)(C)NC(=O)[C@@H](N)Cc1c[nH]cn1)[C@@H](C)O)[C@@H](C)O)[C@@H](C)O)C(C)C)C(=O)N[C@@H](CO)C(=O)N[C@@H](CCCCNC(=O)CC[C@H](NC(=O)CC[C@H](NC(=O)COCCOCCNC(=O)COCCOCCNC(=O)CC[C@H](NC(=O)CCCCCCCCCCCCCCCCC(=O)O)C(=O)O)C(=O)O)C(=O)O)C(N)=O
B6: N^α-([Aib2,Leu10,Arg20,Leu27,Ser28]-Glucagonyl)-N{Epsilon}[(4S)-4-carboxy-4-[[(4S)-4-carboxy-4-[[2-[2-[2-[[2-[2-[2-[[(4S)-4-carboxy-4-(17-carboxyheptadecanoylam … (peptide)
peptide: H[Aib]QGTFTSDLSKYLDSRRARDFVQWLLSTK([γGlu-γGlu-AEEA-AEEA-γGlu-C18 diacid])-NH2
modifications: N-terminus assumed
SMILES: CC(C)C[C@H](NC(=O)[C@H](Cc1ccc(O)cc1)NC(=O)[C@H](CCCCN)NC(=O)[C@H](CO)NC(=O)[C@H](CC(C)C)NC(=O)[C@H](CC(=O)O)NC(=O)[C@H](CO)NC(=O)[C@@H](NC(=O)[C@H](Cc1ccccc1)NC(=O)[C@@H](NC(=O)CNC(=O)[C@H](CCC(N)=O)NC(=O)C(C)(C)NC(=O)[C@@H](N)Cc1c[nH]cn1)[C@@H](C)O)[C@@H](C)O)C(=O)N[C@@H](CC(=O)O)C(=O)N[C@@H](CO)C(=O)N[C@@H](CCCNC(=N)N)C(=O)N[C@@H](CCCNC(=N)N)C(=O)N[C@@H](C)C(=O)N[C@@H](CCCNC(=N)N)C(=O)N[C@@H](CC(=O)O)C(=O)N[C@@H](Cc1ccccc1)C(=O)N[C@H](C(=O)N[C@@H](CCC(N)=O)C(=O)N[C@@H](Cc1c[nH]c2ccccc12)C(=O)N[C@@H](CC(C)C)C(=O)N[C@@H](CC(C)C)C(=O)N[C@@H](CO)C(=O)N[C@H](C(=O)N[C@@H](CCCCNC(=O)CC[C@H](NC(=O)CC[C@H](NC(=O)COCCOCCNC(=O)COCCOCCNC(=O)CC[C@H](NC(=O)CCCCCCCCCCCCCCCCC(=O)O)C(=O)O)C(=O)O)C(=O)O)C(N)=O)[C@@H](C)O)C(C)C
B7: N^ε29-[(4S)-4-carboxy-4-[[(4S)-4-carboxy-4-[[2-[2-[2-[[2-[2-[2-[[(4S)-4-carboxy-4-(17-carboxyheptadecanoylamino)butanoyl]amino]ethoxy]ethoxy]acetyl]amino]ethoxy … (peptide)
peptide: H[Aib]QGTFTSDLSKYLDSRRARDFVQWLLSK([γGlu-γGlu-AEEA-AEEA-γGlu-C18 diacid])-NH2
modifications: N-terminus assumed
SMILES: CC(C)C[C@H](NC(=O)[C@H](CC(C)C)NC(=O)[C@H](Cc1c[nH]c2ccccc12)NC(=O)[C@H](CCC(N)=O)NC(=O)[C@@H](NC(=O)[C@H](Cc1ccccc1)NC(=O)[C@H](CC(=O)O)NC(=O)[C@H](CCCNC(=N)N)NC(=O)[C@H](C)NC(=O)[C@H](CCCNC(=N)N)NC(=O)[C@H](CCCNC(=N)N)NC(=O)[C@H](CO)NC(=O)[C@H](CC(=O)O)NC(=O)[C@H](CC(C)C)NC(=O)[C@H](Cc1ccc(O)cc1)NC(=O)[C@H](CCCCN)NC(=O)[C@H](CO)NC(=O)[C@H](CC(C)C)NC(=O)[C@H](CC(=O)O)NC(=O)[C@H](CO)NC(=O)[C@@H](NC(=O)[C@H](Cc1ccccc1)NC(=O)[C@@H](NC(=O)CNC(=O)[C@H](CCC(N)=O)NC(=O)C(C)(C)NC(=O)[C@@H](N)Cc1c[nH]cn1)[C@@H](C)O)[C@@H](C)O)C(C)C)C(=O)N[C@@H](CO)C(=O)N[C@@H](CCCCNC(=O)CC[C@H](NC(=O)CC[C@H](NC(=O)COCCOCCNC(=O)COCCOCCNC(=O)CC[C@H](NC(=O)CCCCCCCCCCCCCCCCC(=O)O)C(=O)O)C(=O)O)C(=O)O)C(N)=O

These binders were tested against human glucagon receptor (human, UniProt P47871 26-477) (assay: cell-based or functional assay).
human glucagon receptor, sequence (P47871 26-477): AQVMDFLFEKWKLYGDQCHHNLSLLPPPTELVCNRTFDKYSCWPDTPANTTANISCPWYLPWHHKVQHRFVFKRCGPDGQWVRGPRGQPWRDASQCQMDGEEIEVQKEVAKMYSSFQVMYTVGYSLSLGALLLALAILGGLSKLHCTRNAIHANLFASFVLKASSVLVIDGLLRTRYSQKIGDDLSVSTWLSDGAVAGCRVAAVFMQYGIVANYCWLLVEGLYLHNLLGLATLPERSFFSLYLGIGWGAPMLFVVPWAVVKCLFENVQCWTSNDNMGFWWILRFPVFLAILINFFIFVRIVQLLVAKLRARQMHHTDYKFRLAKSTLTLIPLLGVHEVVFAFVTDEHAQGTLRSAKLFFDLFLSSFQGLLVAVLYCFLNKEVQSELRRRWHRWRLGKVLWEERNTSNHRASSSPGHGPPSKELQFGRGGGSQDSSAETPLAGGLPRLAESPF

Binder | EC50 GlucR, CRE luciferase reporter gene assay in BHK cells
B1 | 54 pM
B2 | 1.1 pM
B3 | 2.9 pM
B4 | 1430 pM
B5 | 672 pM
B6 | 1210 pM
B7 | 109 pM

These binders were tested against human GLP-1 receptor (human, UniProt P43220 24-463) (assay: cell-based or functional assay).

Binder | EC50 GLP-1R, CRE luciferase reporter gene assay in BHK cells
B1 | 8 pM
B4 | 6 pM
B5 | 15 pM
B6 | 20 pM
B7 | 5 pM
